Measurements from patent publication US20220160843A1 (priority 2019, published 2022).

B1: GN108: Native lysin, GenBank YP_009288673.1, SEQ ID NO: 26 (protein)
chain: MILTKDGFSIIRNELFEGKLDQTQVDAINFIVEKATEYGLTYPEAAYLLATIYHETGLPSGYRTMQPIKEAGSDSYLRSKKYYPYIGYGYVQLTWEENYERIGKLIGIDLVKNPEKALEPLIAIQIAIKGMLNGWFTGVGFRRKRPVSKYNKQQYVAARNIINGKDKAELIAKYAIIFERALRSL
modifications: Acinetobacter phage phiAB6
B2: GN17: Native lysin, GenBank ACD38663.1, SEQ ID NO: 24 (protein, listed as Pseudomonas aeruginosa)
chain: MTLRYGDRSQEVRQLQRRLNTWAGANLYEDGHFGAATEDAVRAFQRSHGLVADGIAGPKTLAALGGADCSHLLQNADLVAAATRLGLPLATIYAVNQVESNGQGFLGNGKPAILFERHIMYRRLAAHDQVTADQLAAQFPALVNPRPGGYAGGTAEHQRLANARQIDDTAALESASWGAFQIMGFHWQRLGYISVQAFAEAMGRSESAQFEAFVRFIDTDPALHKALKARKWADFARLYNGPDYKRNLYDNKLARAYEQHANCAEASA
B3: GN13: Native lysin, GenBank YP_00638255.1, SEQ ID NO: 23 (protein)
chain: MSDKRVEITGNVSGFFESGGRGVKTVSTGKGDNGGVSYGKHQLASNNGSMALFLESPFGAPYRAQFAGLKPGTAAFTSVYNKIANETPTAFERDQFQYIAASHYDPQAAKLKAEGINVDDRHVAVRECVFSVAVQYGRNTSIIIKALGSNFRGSDKDFIEKVQDYRGATVNTYFKSSSQQTRDSVKNRSQQEKQMLLKLLNS
modifications: Pseudomonas phage Lu11
B4: GN9: Native lysin, GenBank ECJ78460.1, SEQ ID NO: 21 (protein)
chain: MKNFNEIIEHVLKHEGGYVNDPKDLGGETKYGITKRFYPDLDIKNLTIEQATEIYKKDYWDKNKVESLPQNLWHIYFDMCVNMGKRTAVKVLQRAAVNRGRDIEVDGGLGPATIGALKGVELDRVRAFRVKYYVDLITARPEQEKFYLGWFRRATEV
modifications: Marine metagenome
B5: GN10: Native lysin, GenBank YP_002600773.1, SEQ ID NO: 22 (protein)
chain: MSKQGGVKVAQAVAALSSPGLKIDGIVGKATRAAVSSMPSSQKAATDKILQSAGIGSLDSLLAEPAAATSDTFREVVLAVAREARKRGLNPAFYVAHIALETGWGRSVPKLPDGRSSYNYAGLKYAAVKTQVKGKTETNTLEYIKSLPKTVRDSFAVFASAGDFSRVYFWYLLDSPSAYRYPGLKNAKTAQEFGDILQKGGYATDPAYAAKVASIASTAVARYGSDVSSVA
modifications: Pseudomonas phage phi2954
B6: GN105: Native lysin, GenBank WP_016046696.1, SEQ ID NO: 25 (protein, listed as Pseudomonas aeruginosa)
chain: MAVVSEKTAGGRNVLAFLDMLAWSEGTSTIRGSDNGYNVVVGGGLFNGYADHPRLKVYLPRYKVYSTAAGRYQLLSRYWDAYRESLALKGGFTPSNQDLVALQQIKERRSLADIQAGRLADAVQKCSNIWASLPGAGYGQREHSLDDLTAHYLAAGGVLS
B7: GN3: Native lysin, WP_012273008.1/Lysozyme, SEQ ID NO: 2 (protein, listed as Pseudomonas putida)
chain: MRTSQRGLSLIKSFEGLRLQAYQDSVGVWTIGYGTTRGVKAGMKISKDQAERMLLNDVQRFEPEVERLIKVPLNQDQWDALMSFTYNLGAANLESSTLRRLLNAGNYAAAAEQFPRWNKAGGQVLAGLTRRRAAERELFLGAA

tested on: carbapenem-resistant clinical strain, WC-452; assay: Checkerboard assay to examine synergy with antibiotics in CAA/HuS; type: cell-based, P. aeruginosa; details: not given
Description: Fractional inhibitor concentration index (FICI) values were determined for all combinations; values of <0.5 indicate synergy.
The checkerboard assays is based on a modification of the CLSI method for MIC determination by broth microdilution (26, 29). Checkerboards were constructed by first preparing columns of a 96-well polypropylene microtiter plate, in which each well had the same amount of antibiotic diluted 2-fold along the horizontal axis. […] Summation fractional inhibitory concentrations (ΣFICs) were calculated for each drug and the minimum ΣFIC value (ΣFICmin) was used to determine synergy. ΣFICs were calculated as follows: ΣFIC=FIC A+FIC B, where FIC A is the MIC of each antibiotic in the combination/MIC of each antibiotic alone, and FIC B is the MIC of each GN lysin in the combination/MIC of each GN lysin alone. The combination is considered synergistic when the ΣFIC is ≤0.5, strongly additive when the ΣFIC is >0.5 to <1, additive with the ΣFIC is 1−<2, and antagonistic when the ΣFIC is ≥2.

Molecule | synergy with antibiotics in the checkerboard assay
B1 | synergize with a range of antibiotics

same assay, conditions: lysin + amikacin

Molecule | FICI, Amikacin
B1 | 0.156

same assay, conditions: lysin + azithromycin

Molecule | FICI, Azithromycin
B1 | 0.060

same assay, conditions: lysin + aztreonam

Molecule | FICI, Aztreonam
B1 | 0.250

same assay, conditions: lysin + ciprofloxacin

Molecule | FICI, Ciprofloxacin
B1 | 0.281

same assay, conditions: lysin + colistin

Molecule | FICI, Colistin
B1 | 0.133

same assay, conditions: lysin + fosfomycin

Molecule | FICI, Fosfomycin
B1 | 0.188

same assay, conditions: lysin + gentamicin

Molecule | FICI, Gentamicin
B1 | 0.188

same assay, conditions: lysin + imipenem

Molecule | FICI, Imipenem
B1 | 0.039

same assay, conditions: lysin + meropenem

Molecule | FICI, Meropenem
B1 | 0.250

same assay, conditions: lysin + piperacillin

Molecule | FICI, Piperacillin
B1 | 0.531

same assay, conditions: lysin + rifampicin

Molecule | FICI, Rifampicin
B1 | 0.125

same assay, conditions: lysin + tobramycin

Molecule | FICI, Tobramycin
B1 | 0.188

tested on: P. aeruginosa strain ATCC 17647; assay: Minimal Biofilm Eradicating Concentration (MBEC), Calgary Biofilm Device; type: cell-based, Pseudomonas aeruginosa; details: 24 h biofilm, 24 h treatment; minimum concentration removing >95% of biofilm biomass (crystal violet)
Source text: All samples were examined in triplicate.

Molecule | MBEC
B2 | 0.125 µg/mL
B3 | 0.125 µg/mL
B4 | 0.125 µg/mL
B5 | 0.5 µg/mL
B1 | 0.125 µg/mL
B6 | 4 µg/mL
B7 | 0.25 µg/mL

tested on: P. aeruginosa; assay: Time-kill assay of GN lysin activity; type: cell-based, Pseudomonas aeruginosa; details: 3-hour timepoint; 10 μg/mL; in either CAA/HuS or HEPES buffer
Description: All treatments were incubated at 37° C. with aeration.

Molecule | bactericidal activity in the time-kill assay format
B2 | bactericidal activity
B1 | bactericidal activity
B7 | bactericidal activity

same assay, conditions: CAA/HuS; lysin 10 μg/mL; T = 0 7.8; buffer control 7.2; limit of detection 3.7; ‡ indicates bactericidal activity

Molecule | Log10 CFU/mL T = 3 hr
B2 | 4.2‡ Log10 CFU/mL
B4 | 7.3 Log10 CFU/mL
B5 | 7.4 Log10 CFU/mL
B1 | <3.7‡ Log10 CFU/mL
B6 | 6.3 Log10 CFU/mL
B7 | <3.7‡ Log10 CFU/mL

same assay, conditions: CAA/HuS; lysin 10 μg/mL; T = 0 7.8; buffer control 7.7

Molecule | Log10 CFU/mL T = l hr
B2 | 6.4 Log10 CFU/mL
B4 | 6.8 Log10 CFU/mL
B5 | 7.4 Log10 CFU/mL
B1 | 5.7 Log10 CFU/mL
B6 | 7.0 Log10 CFU/mL
B7 | 5.8 Log10 CFU/mL

same assay, conditions: HEPES buffer; lysin 10 μg/mL; T = 0 7.8; buffer control 7.2; limit of detection 3.7; ‡ indicates bactericidal activity

Molecule | Log10 CFU/mL T = 3 hr
B2 | <3.7‡ Log10 CFU/mL
B4 | 5.7 Log10 CFU/mL
B5 | <3.7‡ Log10 CFU/mL
B1 | <3.7‡ Log10 CFU/mL
B6 | <3.7 Log10 CFU/mL
B7 | <3.7‡ Log10 CFU/mL

same assay, conditions: HEPES buffer; lysin 10 μg/mL; T = 0 7.8; buffer control 7.7; ‡ indicates bactericidal activity

Molecule | Log10 CFU/mL T = l hr
B2 | 5.4 Log10 CFU/mL
B4 | 6.7 Log10 CFU/mL
B5 | 5.7 Log10 CFU/mL
B1 | 6.4 Log10 CFU/mL
B6 | 6.6 Log10 CFU/mL
B7 | <3.7‡ Log10 CFU/mL

tested on: P. aeruginosa; assay: Minimal inhibitory concentration (MIC), modified CLSI broth microdilution in CAA or CAA/HuS; type: cell-based, Pseudomonas aeruginosa; details: CAA media

Molecule | MIC (μg/mL) in CAA
B2 | 32 µg/mL
B3 | 8 µg/mL
B4 | 8 µg/mL
B5 | 8 µg/mL
B1 | 8 µg/mL
B6 | >128 µg/mL
B7 | 16 µg/mL

same assay, conditions: CAA supplemented with 25% human serum

Molecule | MIC (μg/mL in CAA/HuS) | MIC value in CAA/HuS
B2 | 16 µg/mL | –
B3 | >128 µg/mL | –
B4 | 2 µg/mL | –
B5 | 16 µg/mL | –
B1 | 8 µg/mL | –
B6 | 32 µg/mL | –
B7 | 16 µg/mL | 16 mg/L

tested on: human erythrocytes; assay: not given; type: cell-based; details: not given
Description: The hemolytic activity of the GN lysins was measured as the amount of hemoglobin released by the lysis of human erythrocytes (30). Briefly, 3 ml of fresh human blood cells (hRBCs) obtained from pooled healthy donors (BioreclamationIVT) in a polycarbonate tube containing heparin was centrifuged at 1,000×g for 5 min at 4° C. The erythrocytes obtained were washed three times with phosphate-buffered saline (PBS) solution (pH 7.2) and resuspended in […]. […] Intact erythrocytes were pelleted by centrifugation at 1,000×g for 5 min at 4° C., and the supernatant was transferred to a new 96-well plate. The release of hemoglobin was monitored by measuring the absorbance at 570 nm.

Molecule | hemolytic activity
B2 | no hemolytic activity whatsoever
B3 | no hemolytic activity whatsoever
B4 | no hemolytic activity whatsoever
B5 | no hemolytic activity whatsoever
B1 | no hemolytic activity whatsoever
B6 | no hemolytic activity whatsoever
B7 | no hemolytic activity whatsoever
